Key:
[1] = tested on: people at high risk for vascular disease with either IFG, IGT, or early type 2 diabetes; experiment: ORIGIN trial: hypoglycemia, weight change and glargine adherence; format: in vivo, human
Source text: Participants were asked to self-administer daily subcutaneous saline injections and to check their capillary glucose levels during a 10 day run-in period. Adherent participants were then provided with lifestyle advice and randomly allocated to either insulin glargine (Lantus™) or standard approaches to glycaemic control. Participants allocated to insulin glargine who were also taking a thiazolidinedione stopped that medication at the time of randomization; otherwise the insulin glargine was added to their glycemic regimen. These participants were instructed to inject insulin glargine in the evening, starting at 2, 4 or 6 units (depending on their initial FPG) and to increase the dose at least once per week targeting a self-measured FPG level ≦5.3 mmol/l (95 mg/dl) and ≧4 mmol/l (72 mg/dl). […] If participants developed uncontrolled hyperglycemia, investigators were permitted to add rapid-acting insulin. No other glucose-lowering medication could be added or increased. FPG levels were measured in the local laboratory at every visit and the results were regularly reviewed along with the dose of insulin to ensure that insulin was being effectively trirated. People not diagnosed with diabetes by the time of the penultimate study visit down-titrated insulin glargine by 10 units per day and stopped any metformin that was prescribed.
Outcomes and other data were collected at scheduled study visits at 0.5, 1, 2, and 4 months after randomization and every 4 months thereafter. Weight, waist and hip circumference were measured annually. HbA1c levels were assayed in local laboratories at every visit for the first year and then annually in people without diabetes and every 4 months for people with diabetes. A first morning urine collection was sent centrally and assayed for creatinine and albumin at baseline, 2 yrs and study end.
There were 2 co-primary composite CV outcomes. The first was CV death, non-fatal MI or non-fatal stroke, and the second was a composite of any of these events or a revascularization procedure or hospitalization for heart failure. Secondary outcomes included a composite microvascular outcome comprising a doubling of serum creatinine from baseline, progression of albuminuria category from normoalbuminuria or microalbuminuria to microalbuminuria or overt nephropathy, renal replacement therapy, renal death, retinal photocoagulation or vitrectomy for retinopathy. They also included new type 2 diabetes developing by the time of the 1st post-trial oral glucose tolerance test in participants without baseline diabetes, and all-cause mortality. Other outcomes included incident cancers, CV hospitalizations, and angina. Cardiovascular and cancer outcomes were reviewed by adjudicators masked to treatment allocation. Episodes of hypoglycaemia since the prior visit were recorded at each visit. Symptomatic hypoglycemia was classified as confirmed if a concomitant recorded capillary glucose level was <3 mmol/L (54 mg/dL). Severe hypoglycemia was defined as hypoglycemia that required assistance plus either prompt recovery with glucose or glucagon or a documented capillary glucose ≦2.0 (36 mg/dL). New diabetes was diagnosed if 2 consecutive FPG levels within a 4-month period were ≧7 mM (126 mg/dL) during the trial; a diagnosis of diabetes was made by a physician and a pharmacologic antidiabetic agent was being taken and there was evidence of either a FPG ≧7 mM (126 mg/dL) or any glucose value ≧11.1 mM (200 mg/dL); either 1 or more capillary glucose levels were ≧11.1 mM (200 mg/dl) and a lab-measured FPG was ≧7 mmol/l (126 mg/dl) or a lab measured random glucose level was ≧11.1 mM (200 mg/dl) during down-titration of glargine insulin; or any FPG was ≧7 mM (126 mg/dl) or 2 hour plasma glucose was ≧11.1 mM (200 mg/dl) during the first oral glucose tolerance test.

[2] = tested on: people with IGT, IFG, or early diabetes; experiment: Double-blind pilot study HOE901/1021 (safety and feasibility); format: in vivo, human
Source text: The use of exogenous insulin in an IGT, IFG, or diabetic population might confer several potential metabolic and cardiovascular benefits: • 1. The fact that it is finely titratable and durable (compared to oral antidiabetic agents) may translate into a powerful effect to delay the exposure of target tissues to toxic levels of glycemia. • 2. Insulin-mediated suppression of circulating free fatty acids (FFA) will: • reduce VLDL synthesis and improve lipoprotein patterns (i.e. lower triglycerides, and increase HDL-C); • reduce lipotoxicity at the level of the beta cell and at insulin's target tissues; • reduce obligatory oxidative metabolism in ischemic myocardium. • 3. Exogenous insulin will prevent metabolic decompensation due to stress, that is either mild and frequent (i.e. daily stresses and minor illness or injury), or severe and less common (i.e. major injury, illness, surgery, vascular events). These stress events would normally suppress endogenous insulin responses even when a pharmacologic secretagogue or sensitizer is present; exogenous, injected insulin cannot be suppressed in such a way. • 4. Nitric oxide-mediated vasodilation and endothelial function are abnormal in those with IFG, IGT, or diabetes. Additionally, markers of endothelial inflammation are increased. These abnormalities are all improved by insulin treatment. […]

(Gly A21) Arg (B31) Arg (B32) human insulin [insulin glargine]
more severe hypoglycemia episodes than standard care ([1]; absolute risk difference): approximately 0.7 per 100 person-years | more suspected or confirmed hypoglycemia episodes than standard care ([1]; absolute risk difference): ~11 per 100 person-years | annual incidence of severe hypoglycemia ([1]; basal insulin in ORIGIN): 1.00% | Reason Stopped: N Hyperglycemia (%), Ever Off ([1]; first time off): 4 (0.15) N (%) | Reason Stopped: N Hypoglycemia (%), Ever Off ([1]; first time off): 218 (8.2) N (%) | Reason Stopped: N Wt Gain (%), Ever Off ([1]; first time off): 4 (0.15) N (%) | risk of hypoglycemia relative to standard care participants ([1]; higher): approximately 3 fold | Any Symptomatic Hypoglycemia, Mean Number of Episodes/yr ([1]; in vivo): 2.6 (4.1) Episodes/yr | Any Symptomatic Hypoglycemia, No Episodes During Follow-up (%) ([1]; in vivo): 2691 (43.0) N (%) | Confirmed Symptomatic Hypoglycemia, Mean Number of Episodes/yr ([1]; in vivo): 1.3 (2.3) Episodes/yr | No Confirmed Episodes During follow-up (%) ([1]; in vivo): 3652 (58.3) N (%) | incidence of the first episode of any (confirmed or unconfirmed) hypoglycemia ([1]; insulin glargine group): 16.73 per 100 person-years | mean weight gain ([1]; insulin glargine group): 1.6 kg | participants without any episode of symptomatic hypoglycemia during the entire trial (number) ([1]; insulin glargine group): 2691 participants | incidence of the first episode of nonsevere symptomatic hypoglycemia confirmed by a self-measured glucose level 3 mmol/l (54 mg/dl) ([1]; insulin glargine group, P<0.001): 9.81 per 100 person-years | incidence of the first episode of severe hypoglycemia ([1]; insulin glargine group, P<0.001 vs standard care): 1.00 per 100 person-years | participants without any episode of symptomatic hypoglycemia during the entire trial (percent) ([1]; insulin glargine group, median 6.2 years): 43% | Reason Stopped: N Hyperglycemia (%), Permanently Off ([1]; last time off and stayed off): 2 (0.2) N (%) | Reason Stopped: N Hypoglycemia (%), Permanently Off ([1]; last time off and stayed off): 42 (4.0) N (%) | Reason Stopped: N Wt Gain (%), Permanently Off ([1]; last time off and stayed off): 4 (0.4) N (%) | Severe Hypoglycemia, Total Episodes During Follow-up ([1]; median follow-up 6.2 years): 457 | Any Symptomatic Hypoglycemia, ≧1 Episode (N/100py) ([1]; nonsevere): 3573 (16.73) N/100py | Confirmed Symptomatic Hypoglycemia, ≧1 Confirmed Episode (N/100py) ([1]; nonsevere, self-measured glucose ≦3 mmol/l (54 mg/dl)): 2612 (9.81) N/100py | Severe Hypoglycemia, ≧1 Episode (N/100py) ([1]; participants (rate per 100 person-years), P<0.001 vs standard care): 359 (1.00) N/100py | 1 or more nonsevere hypoglycemic episodes confirmed by glucose <3 mmol/l (<54 mg/dl) ([1]; people with diabetes at enrollment): 10.5 per 100 person-years | 1 or more nonsevere hypoglycemic episodes confirmed by glucose <3 mmol/l (<54 mg/dl) ([1]; people without diabetes at enrollment): 5.7 per 100 person-years | severity of hypoglycemia episodes ([2]; all episodes): mild | subjects who experienced hypoglycemia ([2]; of 13 insulin glargine subjects, two weeks, calorie-restricted diet, titrated to FPG 80-95 mg/dL): Two

From US20150065421A1, “BASAL INSULIN THERAPY” (SANOFI, priority 2012, published 2015)
